This assay concerns the target T1, SUMO-MDM2 (full length, residues 1-491) (human, UniProt Q00987 1-491).
T1 construct: MDM2, human, full length, residues 1-491; cloned into a SUMO vector (modified pET-28a); eluted without tag cleavage; also called sumo-tagged MDM2; SUMO-MDM2 fusion protein; source: E. coli BL21 (DE3), purified (HisTrap, Superdex 200)
Kind of assay: pull-down; GST-tagged MAGE-C2 proteins on glutathione Sepharose beads, SUMO-MDM2 added; both expressed in bacterium; 20 mM Tris pH 8, 150 mM NaCl, 0.2 mM TCEP, 0.02% Triton-100, 5% milk powder, 4°C; anti-MDM2 Western blot (Figure 2A). The conditions noted are these: both partners purified.

T1 sequence (Q00987 whole entry, the tested form may be a part): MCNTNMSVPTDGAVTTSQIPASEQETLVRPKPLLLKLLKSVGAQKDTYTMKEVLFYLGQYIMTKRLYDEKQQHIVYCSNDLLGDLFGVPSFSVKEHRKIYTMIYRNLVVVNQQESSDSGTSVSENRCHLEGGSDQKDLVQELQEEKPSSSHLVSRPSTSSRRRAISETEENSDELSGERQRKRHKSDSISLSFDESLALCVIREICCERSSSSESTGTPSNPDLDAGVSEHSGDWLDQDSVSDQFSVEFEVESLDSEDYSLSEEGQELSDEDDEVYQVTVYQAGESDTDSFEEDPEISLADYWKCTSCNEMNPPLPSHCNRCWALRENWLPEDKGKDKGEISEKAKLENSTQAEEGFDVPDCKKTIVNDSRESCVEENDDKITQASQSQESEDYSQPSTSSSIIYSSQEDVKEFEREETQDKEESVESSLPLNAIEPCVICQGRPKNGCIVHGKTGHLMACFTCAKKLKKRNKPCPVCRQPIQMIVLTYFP

B1: GST-tagged MAGE-C2 full length (residues 1-373) (natural protein, human, UniProt Q9UBF1 1-373, looked up)
chain: MPPVPGVPFRNVDNDSPTSVELEDWVDAQHPTDEEEEEASSASSTLYLVFSPSSFSTSSSLILGGPEEEEVPSGVIPNLTESIPSSPPQGPPQGPSQSPLSSCCSSFSWSSFSEESSSQKGEDTGTCQGLPDSESSFTYTLDEKVAELVEFLLLKYEAEEPVTEAEMLMIVIKYKDYFPVILKRAREFMELLFGLALIEVGPDHFCVFANTVGLTDEGSDDEGMPENSLLIIILSVIFIKGNCASEEVIWEVLNAVGVYAGREHFVYGEPRELLTKVWVQGHYLEYREVPHSSPPYYEFLWGPRAHSESIKKKVLEFLAKLNNTVPSSFPSWYKDALKDVEERVQATIDTADDATVMASESLSVMSSNVSFSE
notes: MAGE-C2, human, full length, residues 1-373; synthetic gene in pGEX-6p-1 with a 3C protease site after GST; In the ubiquitination assays the GST tag had been cut off with 3C protease; in the pull-down GST was kept; also called MAGE-C2 FL; GST-MAGE-C2; source: E. coli BL21 (DE3), purified (glutathione Sepharose); not shown: GST, N-terminal, kept
For B1, the binding result is “binds”.

B2: GST-tagged MAGE-C2 MHD domain (residues 140-350) (domain or fragment, human, UniProt Q9UBF1 140-350, looked up)
chain: TLDEKVAELVEFLLLKYEAEEPVTEAEMLMIVIKYKDYFPVILKRAREFMELLFGLALIEVGPDHFCVFANTVGLTDEGSDDEGMPENSLLIIILSVIFIKGNCASEEVIWEVLNAVGVYAGREHFVYGEPRELLTKVWVQGHYLEYREVPHSSPPYYEFLWGPRAHSESIKKKVLEFLAKLNNTVPSSFPSWYKDALKDVEERVQATIDT
notes: MAGE-C2, human, MAGE homology domain (MHD), residues 140-350; synthetic gene in pGEX-6p-1; In the ubiquitination assays other forms were used (GST cut off in vitro; Myc-tagged in HEK293T cells); also called MHD^WT; GST-MAGE-C2; source: E. coli BL21 (DE3), purified (glutathione Sepharose); not shown: GST, N-terminal, kept
In the case of B2, the binding result is given as “binds”.
